The RNAGym collection of RNA variant scans (doi:10.1021/acssynbio.7b00057)

B1: Pistol ribozyme (parent)
chain: GGGUCGUUGUUCCAUAAUCGCGUGGAUAUGGCACGCAAGUUUCUACCGGGCACCGUAAAUGUCCGACUGGAGCCGUUCGGGCGGCUAUAAACAGACCUCAGGCCCGAAGCGUGGCGGCACCUGCCGCCGGUGGUAAAAAAGAUCGGAAGAGCACACGUCU

Variants of: B1
Test: aptazyme ON/OFF ratio, guanine; higher = stronger switching; co-transcriptional cleavage with and without guanine

Variant	aptazyme ON/OFF ratio
U7C U10G U11C C13U	1.02
U7C U10G U11C C13G	1.06
U7C U10G U11C C13A	1.08
U7C U10C C12G C13A	1.23
U7C U10C C12G C13U	1.21
U7C U10C C12G C13G	1.18
U7C U10G U11C C12G C13U	1.28
U7C U10G U11C C12G C13G	1.16
U7C U10G U11C C12G C13A	1.22
U7C U8G U11C C12A C13A	1.28
U7C U8G U11C C12A C13U	1.34
U7C U8G U11C C12A C13G	1.15
U7C U10A U11A C12U C13A	1.28
U7C U10A U11A C12U C13U	1.27
U7C U10A U11A C12U C13G	1.16
U7C U8G U10G U11C C12G C13G	1.18
U7C U8G U10G U11C C12G C13A	1.16
U7C U8G U10G U11C C12G C13U	1.26
U7C U10A U11C C13A	1.02
U7C U10A U11C C13U	1.01
U7C U10A U11C C13G	1.01
U7C U8G U10G U11A C12A C13G	1.13
U7C U8G U10G U11A C12A C13A	1.11
U7C U8G U10G U11A C12A C13U	1.2

Variant	aptazyme ON/OFF ratio
U7C U8G U11A C12A C13U	1.13
U7C U8G U11A C12A C13G	1.07
U7C U8G U11A C12A C13A	1.09
U7C U8G U11C C12U C13U	1.35
U7C U8G U11C C12U C13A	1.35
U7C U8G U11C C12U C13G	1.19
U7C U8G U10G U11C C12A C13G	1.1
U7C U8G U10G U11C C12A C13A	1.19
U7C U8G U10G U11C C12A C13U	1.42
U7C U10C U11A C12U C13G	1.32
U7C U10C U11A C12U C13A	1.28
U7C U10C U11A C12U C13U	1.22
U7C U8G U10G U11G	1.63
U7C U8G U10G U11C	1.09
U7C U8G U10G U11A	1.17
U7C U10C C12A C13G	1.18
U7C U10C C12A C13U	1.34
U7C U10C C12A C13A	1.37
U7C U10G U11C C12A C13A	1.21
U7C U10G U11C C12A C13U	1.18
U7C U10G U11C C12A C13G	1.11
U7C U8G U10C U11C C12G C13A	1.14
U7C U8G U10C U11C C12G C13G	1.13
U7C U8G U10C U11C C12G C13U	1.24

Variant	aptazyme ON/OFF ratio
U7C U8G U11G	1.2
U7C U8G U11C	3.13
U7C U8G U11A	1.88
U7C U8G U11G C13U	1.14
U7C U8G U11G C13G	1.07
U7C U8G U11G C13A	1.13
U7C U8G U10G U11C C12A	1.34
U7C U8G U10G U11C C12G	1.55
U7C U8G U10G U11C C12U	1.16
U7C U10G C12G C13G	1.13
U7C U10G C12G C13A	1.17
U7C U10G C12G C13U	1.18
U7C U10A U11A C12A C13U	1.21
U7C U10A U11A C12A C13A	1.17
U7C U10A U11A C12A C13G	1.11
U7C U8G U10C U11G	2
U7C U8G U10G U11C C13G	1.2
U7C U8G U10G U11C C13A	1.24
U7C U8G U10G U11C C13U	1.14
U7C U10C U11C C13U	1.08
U7C U10C U11C C13A	1.07
U7C U10C U11C C13G	1.14
U7C U11A C12A	1.51
U7C U8G U10G U11G C12G C13G	1.15

Variant	aptazyme ON/OFF ratio
U7C U8G U10G U11G C12G C13A	1.17
U7C U8G U10G U11G C12G C13U	1.26
U7C U10G C13U	1.39
U7C U10G C13A	1.2
U7C U10G C13G	1.16
U7C U10G	1.65
U7C U10A	1.12
U7C U10C	1.92
U7C U10G U11A C12G C13U	1.22
U7C U10G U11A C12G C13G	1.15
U7C U10G U11A C12G C13A	1.09
U7C U8G U10C U11C C13G	1.09
U7C U8G U10C U11C C13A	1.03
U7C U8G U10C U11C C13U	1.11
U7C U10G U11G C12A	1.2
U7C U10G U11G C12G	1.22
U7C U10G U11G C12U	1.21
U7C U10G U11G C12G C13U	1.16
U7C U10G U11G C12G C13G	0.991
U7C U10G U11G C12G C13A	1.1
U7C U10G U11A C12A	1.13
U7C U10G U11A C12G	1.15
U7C U10G U11A C12U	1.15
U7C U10G U11C C12A	2.07

Variant	aptazyme ON/OFF ratio
U7C U10G U11C C12U	1.16
U7C U10G U11C C12G	1.52
U7C U8G U10C U11G C12G C13U	1.11
U7C U8G U10C U11G C12G C13A	1.09
U7C U8G U10C U11G C12G C13G	1.09
U7C U10C U11G C12A	1.35
U7C U10C U11G C12G	1.3
U7C U10C U11G C12U	1.18
U7C U8G U11C C13A	1.3
U7C U8G U11C C13U	1.36
U7C U8G U11C C13G	1.12
U7C U8G U11C C12G	1.3
U7C U8G U11C C12A	1.35
U7C U8G U11C C12U	1.28
U7C U10C U11C C12G C13U	1.24
U7C U10C U11C C12G C13A	1.25
U7C U10C U11C C12G C13G	1.18
U7C U10C U11G C13A	0.947
U7C U10C U11G C13G	1.17
U7C U10C U11G C13U	1.74
U7C U10G U11A C12A C13G	1.17
U7C U10G U11A C12A C13U	1.09
U7C U10G U11A C12A C13A	1.2
U7C U10A U11A C13A	1.28

Variant	aptazyme ON/OFF ratio
U7C U10A U11A C13U	1.19
U7C U10A U11A C13G	1.2
U7C U10A C12U C13A	1.19
U7C U10A C12U C13U	1.35
U7C U10A C12U C13G	1.14
U7C U10A U11A C12A	1.17
U7C U10A U11A C12U	1.2
U7C U10A U11A C12G	1.28
U7C U8G U11A C13A	1.07
U7C U8G U11A C13U	1.16
U7C U8G U11A C13G	1.07
U7C U10A U11C C12U C13A	1.05
U7C U10A U11C C12U C13G	1.07
U7C U10A U11C C12U C13U	1.05
U7C U10G U11G C12A C13U	1.26
U7C U10G U11G C12A C13G	1.16
U7C U10G U11G C12A C13A	1.13
U7C U8G U11G C12A C13A	1.1
U7C U8G U11G C12A C13U	1.18
U7C U8G U11G C12A C13G	1.08
U7C U8G U10G U11A C12U C13U	1.23
U7C U8G U10G U11A C12U C13G	1.11
U7C U8G U10G U11A C12U C13A	1.23
U7C U10G U11A C12U C13G	1.1

Variant	aptazyme ON/OFF ratio
U7C U10G U11A C12U C13A	1.19
U7C U10G U11A C12U C13U	1.22
U7C U8G U11A C12G	1.1
U7C U8G U11A C12A	1.14
U7C U8G U11A C12U	1.15
U7C U10A C12G C13A	1.18
U7C U10A C12G C13U	1.23
U7C U10A C12G C13G	1.14
U7C U10A U11G C12A C13U	1.17
U7C U10A U11G C12A C13G	0.975
U7C U10A U11G C12A C13A	1.17
U7C U8G U10G C12U	1.24
U7C U8G U10G C12G	1.36
U7C U8G U10G C12A	1.21
U7C U8G U10G U11G C12A	1.28
U7C U8G U10G U11G C12U	1.21
U7C U8G U10G U11G C12G	1.21
U7C U10A U11C C12A	1.12
U7C U10A U11C C12G	1.25
U7C U10A U11C C12U	1.03
U7C U10C C12U C13A	1.3
U7C U10C C12U C13G	1.28
U7C U10C C12U C13U	1.36
